Target: RNase A (UniProt P61823)
Assay: inhibition

UniProt P61823, sequence (P61823 27-150): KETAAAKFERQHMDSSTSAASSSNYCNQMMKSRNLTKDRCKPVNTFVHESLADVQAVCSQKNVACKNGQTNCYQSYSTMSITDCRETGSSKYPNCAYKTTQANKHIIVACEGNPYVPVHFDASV

## polyG
2 ug/ml polyG, polyC substrate, 100 mM MES, 100 mM NaCl pH 6.0, non-competitive
  Ki: 0.01 µM
20 ug/ml polyG, polyC substrate, 100 mM MES, 100 mM NaCl pH 6.0, non-competitive
  Ki: 0.0873 µM
Dixon, 40 mM Tris-HCl pH 7.9, 6 mM MgCl2, 10 mM NaCl, 2 mM spermidine
  Ki: 0.04 µM
Dixon, 40 mM Tris-HCl pH 7.9, 6 mM MgCl2, 10 mM NaCl, no spermidine
  Ki: 0.01 µM

Reference: US20020137076
